Source: US20120156246A1

Target: histidine tagged PSMGFR peptide (MUC1* extra cellular domain)
Experiment: SPR, histidine-tagged PSMGFR on 3.8% or 5.7% NTA SAM chip

Chain of histidine tagged PSMGFR peptide (MUC1* extra cellular domain) (peptide, as listed by the source): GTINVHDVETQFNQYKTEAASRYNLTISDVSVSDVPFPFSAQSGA

SPR binding response (RUs): 70 RU
Substance: NM23-S120G (100% hexamer preparation) (from UniProt P15531 1-152) (ligand)
